Laboratory results: patent US20170128554A1

Biological target: Fetuin (denatured; sialylated complex N-linked glycans) (UniProt P12763)
Assay: fetuin pull-down from cell lysates, low salt buffer, SDS-PAGE band quantification

Chain of Fetuin (denatured; sialylated complex N-linked glycans) (P12763 19-359, one chain of several): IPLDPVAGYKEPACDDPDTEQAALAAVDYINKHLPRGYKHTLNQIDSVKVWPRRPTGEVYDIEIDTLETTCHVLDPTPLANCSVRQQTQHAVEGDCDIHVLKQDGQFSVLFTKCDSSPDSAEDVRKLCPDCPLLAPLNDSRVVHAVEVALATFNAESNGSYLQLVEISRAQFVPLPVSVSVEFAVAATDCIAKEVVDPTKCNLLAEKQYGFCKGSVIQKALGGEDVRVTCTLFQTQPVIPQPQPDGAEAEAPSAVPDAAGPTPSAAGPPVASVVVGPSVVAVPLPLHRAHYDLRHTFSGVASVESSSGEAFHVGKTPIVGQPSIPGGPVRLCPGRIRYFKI

| fold capacity to interact with fetuin, against wild type Fbs [fold] | fold ability to be pulled down by immobilized fetuin, against wild type Fbs [times] | Substance |
| --- | --- | --- |
| 2 |  | Fbs mutant S155G (from UniProt Q9UK22 113-296) |
|  | 1.5 | Fbs mutant S155A (from UniProt Q9UK22 113-296) |
